Results reported in paper PMC12676389.

Tests used:
[1] = target: β2-adrenergic receptor, construct PN1 (monomeric receptor) (UniProt P07550); test: BLI; as a16, monomeric β2AR with 10 μM AP
[2] = target: AP-7-168-bound β2AR dimer (construct PN1) (UniProt P07550); test: SEC; AP-bound dimer with nucleotide-free Gs; peak fractions on SDS-PAGE, ratio of β2AR to Gα estimated on gels
[3] = target: β2-adrenergic receptor, construct PN1 (monomeric receptor) (UniProt P07550); test: BLI; FLAG-tagged β2AR (monomer or AP-bound dimer) captured with 10 μM Iso on SA tips by biotinylated anti-FLAG M1 Fab; Gs 30 nM to 10 μM with 10 μM GDP and 0.1% BSA in NH buffer, 0.01% LMNG, 0.001% CHS; 30°C; KD from equilibrium responses

Kd [1]: 1700 nM
stoichiometry N [2]: 2 β2AR per Gα
Kd [3]: 960 nM
Substance: heterotrimeric Gs (Gαsβ1γ2) (from UniProt P63092 1-394; P62873 1-340; P59768 1-71) (complex)
